Data as given in paper PMC11604724 (MedComm, 2024).

Columns and labels:
[1] = target: PNGase F‐treated NTD protein (SARS-CoV-2 WT, UniProt P0DTC2, N-linked glycans removed with PNGase F (nearly complete deglycosylation)); experiment: ELISA; conditions: both partners purified
[2] = target: Horseradish peroxidase (HRP)‐labeled NTD protein (SARS-CoV-2, WT assumed, UniProt P0DTC2, horseradish peroxidase (HRP) label); experiment: ELISA; conditions: both partners purified
[3] = target: SARS‐CoV‐2 N‐terminal domain (NTD) protein (SARS-CoV-2 WT, UniProt P0DTC2, N-linked glycans (complex glycosylation, migrates at 40-70 kDa)); experiment: ELISA; conditions: both partners purified
[4] = target: SARS‐CoV‐2 (WT) spike expressed on HEK293T cells (SARS-CoV-2, UniProt P0DTC2); experiment: flow cytometry on cells; conditions: one partner purified

Measured: binding result

B1: mAb 3711 (antibody, V domains shown)
VH: EVQLVESGGGLVKPGRSLRLSCAASGFTFSDYYMSWIRQAPGKGLEWVSYISSSGSTIYYADSVRGRFTISRDNAKNSLYLQMNTLRAEDTAVYYCARGGWELRSLAGGYYGMDVWGQGTTVTVSS
VL: DIVMTQTPFTLSASVGDRVTITCRASQGIRNDLGWYQQKPGKAPKCLIYAASSLLSGVPSRFSGSGSGTEFTLTISSLQPEDFATYYCLQHNSYPWTFGQGTKLEIK
binds: all assays above
